The test concerns the target His-tagged CNA. The test is described as follows: SPR. (In SPR one partner is held on a chip, and binding of the other changes the refractive index at the surface.)

No end group written: not given here. *: point of attachment. Biotin = O=C1N[C@H]2[C@H](CS[C@H]2CCCCC(=O)*)N1

Broadly, the Kd is a measure of binding affinity in units of concentration. Low readings indicate higher affinity, high ones lower affinity. In the case of Biotin-AAAMAGFPPEITVTPPTP [CABIN1-L-1], the equilibrium dissociation constant (Kd) was determined as 512 nM.

These data come from patent publication US20240376163A1 (published 2024).
